Data published in paper PMC10279920, “Single-molecule visualization of Pif1 helicase translocation on single-stranded DNA” (The Journal of Biological Chemistry, 2023).

Biological target: T1, GFP-Pif1 K312A (Saccharomyces cerevisiae, UniProt P07271 40-859, K312A)
T1 sequence: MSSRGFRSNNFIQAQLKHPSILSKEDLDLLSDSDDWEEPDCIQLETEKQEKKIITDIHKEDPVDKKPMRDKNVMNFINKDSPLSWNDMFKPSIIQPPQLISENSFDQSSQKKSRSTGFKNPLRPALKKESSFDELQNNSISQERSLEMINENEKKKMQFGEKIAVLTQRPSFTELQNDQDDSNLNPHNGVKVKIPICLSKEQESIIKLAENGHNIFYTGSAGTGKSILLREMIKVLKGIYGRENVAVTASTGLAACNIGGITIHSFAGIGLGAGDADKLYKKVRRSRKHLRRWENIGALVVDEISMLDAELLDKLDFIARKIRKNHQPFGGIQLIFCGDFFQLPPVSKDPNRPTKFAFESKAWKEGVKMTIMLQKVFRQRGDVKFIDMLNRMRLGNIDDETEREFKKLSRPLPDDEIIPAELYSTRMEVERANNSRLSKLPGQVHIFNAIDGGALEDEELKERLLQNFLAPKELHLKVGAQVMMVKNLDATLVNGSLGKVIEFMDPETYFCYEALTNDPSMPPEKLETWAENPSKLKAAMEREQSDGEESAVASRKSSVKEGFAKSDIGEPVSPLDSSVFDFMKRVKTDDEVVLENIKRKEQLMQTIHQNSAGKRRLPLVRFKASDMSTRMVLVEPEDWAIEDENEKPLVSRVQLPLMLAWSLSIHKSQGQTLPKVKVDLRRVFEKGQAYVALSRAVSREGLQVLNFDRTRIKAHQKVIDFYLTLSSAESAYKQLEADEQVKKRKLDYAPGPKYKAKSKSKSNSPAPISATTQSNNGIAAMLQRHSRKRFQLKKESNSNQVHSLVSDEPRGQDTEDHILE
Experiment: EMSA; no ATP, 5 mM Mg2+; 35 mM Tris-HCl pH 7.5, 1 mM DTT, 5 mM MgCl2, 60 mM KCl, 0.1 mg/ml BSA, no ATP, 30 min at 30 C; 5 nM ssDNA
Conditions: protein: recombinant; tags: N-terminal superfolder GFP; Ni-NTA purified; label: 5' Alexa647

B1: 40-nt ssDNA (ssDNA)
DNA: GCTAGCAGTAGCCAGCATCGAACGTACGATCGGTAACGTA
Kd: 40 nM
